According to publication PMC10914604, “FacZ is a GpsB-interacting protein that prevents aberrant division-site placement in Staphylococcus aureus” (Nature Microbiology, 2024):

Biological target: T1, N-terminal domain of GpsB (GpsB 1-75) (S. aureus, UniProt Q2FYI5 1-75)
T1 construct: GpsB, S. aureus, amino acids 1-75 (N-terminal domain); source: E. coli BL21 (DE3), purified (Ni-NTA, SUMO protease, second Ni-NTA); not shown: His, N-terminal, cleaved; SUMO, N-terminal, cleaved
T1 sequence (looked up): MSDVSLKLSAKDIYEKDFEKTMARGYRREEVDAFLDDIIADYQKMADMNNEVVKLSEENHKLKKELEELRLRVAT
Test: SEC; GpsB(1-75) at 90 uM mixed with SUMO-FacZ at 30 uM in 500 ul, salt 150-200 mM; Superdex75 Increase 10/300 in 20 mM HEPES pH 7.6, 100 mM NaCl, 1 mM DTT, 0.5 ml/min
Settings: both partners purified

B1: His-SUMO fusion bearing a 3x concatenation of residues 127-146 of FacZ (native motif NRHYRR) (domain or fragment)
chain: EIADKWQNRHYRRGSANYKAGSAGEIADKWQNRHYRRGSANYKAGSAGEIADKWQNRHYRRGSANYKA
notes: FacZ (factor preventing extra Z-rings), S. aureus, residues 127-146, first of three repeats; linker; FacZ, S. aureus, residues 127-146, second repeat; FacZ, S. aureus, residues 127-146, third repeat; The methods call the stretch 127-145, the results and legends 127-146; also called SUMO-3x-FacZ (127-146); His-SUMO-FacZ_(127-145); source: E. coli BL21 (DE3), purified (Ni-NTA); not shown: His, …
Does B1 bind?
Result: binds
